Experimental data as given in paper PMC2034485.

Molecular target: Rad18 S471A;Rad6 (hHR6B) (Homo sapiens;Homo sapiens, UniProt Q9NS91;P63146 1-495;1-152, S471A|)
Assay: EMSA, competition

Rad18 S471A;Rad6 (hHR6B), sequence (Q9NS91 whole entry S471A, chain 1 of 2): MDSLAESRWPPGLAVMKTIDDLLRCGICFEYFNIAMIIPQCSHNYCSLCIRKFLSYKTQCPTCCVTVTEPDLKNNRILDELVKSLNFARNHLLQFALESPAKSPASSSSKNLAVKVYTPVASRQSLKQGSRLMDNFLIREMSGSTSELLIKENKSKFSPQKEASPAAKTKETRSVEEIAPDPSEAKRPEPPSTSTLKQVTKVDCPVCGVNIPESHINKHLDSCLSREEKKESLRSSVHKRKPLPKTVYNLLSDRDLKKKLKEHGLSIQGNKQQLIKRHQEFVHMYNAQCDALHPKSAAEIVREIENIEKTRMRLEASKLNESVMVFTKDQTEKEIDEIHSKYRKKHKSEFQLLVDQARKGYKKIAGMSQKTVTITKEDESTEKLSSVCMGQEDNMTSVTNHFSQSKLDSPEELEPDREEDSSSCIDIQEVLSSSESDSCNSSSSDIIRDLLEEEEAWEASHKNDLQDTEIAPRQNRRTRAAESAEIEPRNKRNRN
Rad18 S471A;Rad6 (hHR6B), sequence (P63146 whole entry, chain 2 of 2): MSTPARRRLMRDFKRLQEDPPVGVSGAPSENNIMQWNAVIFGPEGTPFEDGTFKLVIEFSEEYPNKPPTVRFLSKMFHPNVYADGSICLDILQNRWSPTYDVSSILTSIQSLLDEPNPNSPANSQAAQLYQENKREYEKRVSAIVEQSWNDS

B1: 35T (ssDNA)
DNA: TTTTTTTTTTTTTTTTTTTTTTTTTTTTTTTTTTT
Does B1 bind?
Result: binds
